Data as given in paper PMC4861830, “Isolation and Characterization of Three New Monoterpene Synthases from Artemisia annua” (Frontiers in Plant Science, 2016).

Substrate: CC(C)=CCC/C(C)=C/COP(=O)(O)OP(=O)(O)O
Assay: purified protein
Assay type: biochemical, Artemisia annua
Settings: Mg2+ (5 mM MgCl2), 25 mM HEPES pH 7.0, 5 mM DTT, 30 °C, GPP 3-100 μM
[1] = Table 1 prints 19.74 (text and table disagree; printed kcat/Km 7.66 × 10^4 fits 19.47)

Protein	Km [1] [µM]	kcat [1] [s⁻¹]	Km [µM]	kcat [s⁻¹]	kcat/Km [M⁻¹ s⁻¹]
AaTPS5 (Artemisia annua) (protein, N-terminal 57-residue plastid signal peptide removed (before RR motif; full length 602 residues); pET-32a fusion tag kept; E. coli BL21(DE3); Ni-NTA) IRRSAGYPPSLWPYERIQAINSIYTGEKYASRLETLKEEVRNMIYKENEKAENPLSTLNLVDDLQRLGIWYHFVDDINNVLDNVYNKYYKSPEKWNTLDLNLKALGFRLLRHNGYHITQDIFEDIQDETRIMGHTIEDTLGLLNLYEASYHSFEDENILDEARAFTKKYLQGSLGKIDDQYLSSLTSRALDMPLHWRIARVETIWFMEAYEKRSGMNPTVLDLAKLDFNMVQAVHQEDLKYASRWWRTTKWDDKLSFARDRLVENYMWTIGNSYRPQFTLLRRILTKVFAIITTVDDVYDVHGTLDELERFTDVISRWNIYAIEELPDYMKICFLGFYNSVNDMAYTTLTDTGFFILPYLQKAWEDLCKAYLVEARWYHTKYMPTFKEYLDIAEVSISVPLMLTHISFVMNVCSTEEVIQSMDKIKNLIRYSSQILRLADDLGTSSDEMARGDTPKSIQCYMHETGATEEEARAHVRSLIIKVWQKLNKERAGLKTTYLKEFGECAANFGRMAQFMYQVADGHGHNIDLTEAYVLSLVVNPIQGV	19.47	1.49			
AaTPS2 (Artemisia annua) (protein, N-terminal 46-residue plastid signal peptide removed (before RR motif; full length 586 residues); pET-32a fusion tag kept; E. coli BL21(DE3); Ni-NTA) VRRTANYEPTLWSYDHIQSLSSKYTGEEYAARANILKNSVKRLLGEVENSPSILELVNDLQRLGIYYHFEDEIRNALEMIYYKYYKTPDKWGKMDLNLTALGFRLLRQHGYQVPQEIFQNFLDNAQNLKPHLLEEIAGMLNLYEASYHAFEDETILDNARAFTTKYLKENLDKIDGHILSLVSHALEFPLHWRVPRVEAKWYIEVYEKKNGMNHILIELAKLDFDMVQAIHLEDLKHASRWWRNTNWDKKLSFARDRLVENFLWTIGFNYLPQFSHGRRTLTKVNALITTIDDVYDVFGTLDEIEQFTDATNRWDINSIEELPDYMKICFLGFYNTINEITYNALTNKRFIILPYLKKAWGDLFKSFVVEANWYQSGHIPTLEEYLENGCISISGPVILMHVHFITSISSAEEIMQCMEISKDIVRYSSLIFRLTDDLGTSSGEMERGDNPKSLQCYMHETGASEDEARIYMKSLIGETWKKLNKERTHASSDITREFIDFATNLVRMAQFMYGEGDVHGRPDVTKSHVLSLLFNPIQEI			8.25	0.52	63100
AaTPS6 (Artemisia annua) (protein, N-terminal 46-residue plastid signal peptide removed (before RR motif; full length 587 residues); pET-32a fusion tag kept; E. coli BL21(DE3); Ni-NTA) GRRSANYEPSLWSFDHVQSLSSKYTGKNYVSRADSLKKIVKTMIHEVGNPSTALELVDDLQRLGIWYHFEDEISNVLEMIYRDFYDNEDRCSKMDMNFKALSFRLLRQHGYHVPQEIFHNFKEKTQNLKPYLHEDMVVMLNIYEASYYSYEDESIMDDARDFTAKYLKENHDSIDESISSLVSHALEFPLHWRIPREEAKWFIEFYEKRSGRNPTLIELAKLDFNMVQSIHLEDLKHASRWWRNTCWDKELPFARDRLMENFLWTVGVNYLPRFSLGRRTLTKVNAMITTIDDVYDVFGTIDELEKFTEVTNRWDINAVEELPDYMQICFIAFYNSINEIAYNTLTDTKFLILQYLKKGWVDLCNSYLKEAQWYESGYVPTLEEYLENAYVSISAPVILTHVNFLTTITSKEEILQFMETSDNIVRYSSLILRLADDLGTSSLEMARGDVPKSIQCYMHESGASEDEARMHIKDLILETWKKFNKEREHVKSKIAREFTYCAMNLGRMAQFMYREGDGHGHLSDVTKSHVLSWLINPIQGM			17.70	4.46	252000
